Test results: a protein production outcome set (Wang et al. 2014)

Assay: label from the status in PepcDB records

Sequence	protein production
MAYDIERYLDIRGAGDPTYGPTGELAFTLGTTGTAQVWALGAPGAWPTQLTFHDERVQWASFSPTREELAYGMDTGGDEFTQLHRVSGDGSEDVQLTAFPDAKHDWGGWSHDGDRIAYTANRRDASRFDVYVQGRDEAGANADCVRVGDTFDLPSVVGWSPSDDRLLVVDTHSNFDQDVAVLDVDTGEITRATAGLDADTRFSWVAWAPDGGGVYVTTDHDADTRYLGLLDPETGAISRVADGGDWPIEAVVTAHDAGRLAYVRNRDGYSELTIADAAGTTLTEQPTPELPDGVIRGLSWGPDGDTLAVVVSAATENPNVFVVDVATGAATQWTNAATAGIPKSTFREPELVRYETFDGREIPALFTRPDGDGPHPVIVDFHGGPEGQRRPSFLSLRQYFVDNGYAVFEPNVRGSSGYGATYMNLDNVRNRMDAVADGKAGVEWLTARTDIDADRVVAYGGSYGGFMVLASLTEYPELWAAGVDIVGIANFVTFLENTGDWRREHRESEYGSLDADREFLESISPTNNADRIRAPLLVLHGANDPRVPVGEAERIVEQASAHVPVEKHVFDDEGHGFSKRANKQAAYRAVVDFLDDHA	failed
MAYDLWYWDGIPGRGEFVRLALEAGKIPYRDRAREPGEDMLDDMRRRRDTPPFAPPYLVADGMTIAQTANILLFLGVEHGLAPPDRAGRLWVNQLQLTIADLTAEAHDVHHPVAAGLYYEDQQDVALRRAADFRETRMPKFMQYFEQALDRPGGWLTDMGRWSYADLSLYHVVEGLLHAFPRRMRTLVHRYPRLMALHARVAELPELRGYLASDRRLPFGDGIFRHYPELDGA	not failed
MAYDNRAVVRKVLLITLLLNLFVMGLKAFVGYLTGSLSLLADALHSVTDSANNILGLFASSFSSPYPDREHPYGHHKFEAVGALGIAAFLGIACFEILQGAIERILKGGAPVRISPPELWLLLIVLGVNIFVAFYERNEGKRVGSQILIADATHTMSDVWVTISVIFGLIGVWLGYQWLDIVLAFPVALLVFWSGWSVLKENLPWLVDQMAIAPEAIHAIAVAVPGVINCHDIASRGVLGRQIFMEMHLIVDAPDVETAHRITEEVERRLEERFSPVRIIIHVEPPNYESEQISFETGSK	failed
MAYVKERIYESMFIIAPNVPEEERENLVERVKKIIEERVKGKIDKVERMGMRKFAYEIKKFNEGDYTVIYFRCDGQNLQELENFYRVTPEIIRWQTFRRFDLEKKERKAQREKAAAEATESSEGGSED	not failed
MCAFNGAALTALGISHSALLAHSPQGCEYLVNNAFASQECDYMETMTLCTKLCVDEIVHGGEDILARTIREVKDLPISALFVLSACGPEIVGDDIVGVCEALQPEVKFRLVPIESAGFRGSQYDGIDIAMDTILKKLVKDDVEKIPGSVCLEHHHHHH	failed
MCARPCRPTNLPTRFSMSNSDPSPTLEGNYDLLFRFAFWLFVGAISFSVAGMLLLRLVPSSMAIFGPIYTKLVKTPTWTFMTLLALLPLLMYGPTLGWKKISLIAAWGCIIGGASELIGTTGWLNVGGIALPFGEYEYTQWLGPKIAGHVPYFIPPSWFAMSIVSLDLARRVTTQRVGSLLLGTLFMVLWDVSLDPAMNQAFPFWEYGVDGVFFGMPLSNWAGWAGVTFVILLGYEYIGKGAPIQNEWAPWVYALNCIFPLSICLLRDVYLPALIGGLATLVPFLLLWRYNPDSLKRSVSLFRG	failed
MCCCVQFLMSFSSVPSAMPAIDPDALESQVAQRLDPHGSDGVQSALSGVVDLEALEERRYGEVLGAIDQRLTQSRYSLLSMVVAGIYFGLLVGLWLVDGSTWSRIALWLAPTLLVAVYGLYATHQTVRQIRHLSETRALLQILMNGPSADG	failed
MCDTFVEFIQLEETVKHDENGKPVKRLRRRETLVHSENVAGRSFWNEHSSLHKDLGHFAKDIGKIEPDYVKSFQFESRLLPLTWVVVRIDGCHFHRFSEVHEFEKPNDEQALKLMNSCAVAVLEEFQDIAFAYGVSDEFSFVLKNKSELYKRQSSKIISAVVSFFTSTYMMRWGDFFPHKKLKYPPSFDGRAVCYPTSDILLDYLAWRQVDCHINNQYNTCFWMLVKSGKSKIQAQDYLKGTQTREKNELLSQQFGIEYNSLPVIFRMGSSVFRLKVLLLLSYSKILLVFHSRFLLL	failed
MCIAIPGKMTAIVDENTATIDMGGICRDVNMALMGGAEESMIGKHFLVHVGYAISEISEEESEETMRLLKIMAGLEEIDSFE	not failed
MCIQKVIEDKLSSALKPTFLELVDKSCGCGTSFDAVIVSNNFEDKKLLDRHRLVNTILKEELQNIHAFSMKCHTPLEYDKLKSK	not failed
MCKNSQYLHLPDEIPQQLMLLWESSDEVWGFKDLDSHYLYANNPFIELLNFPPEFCIKGLLDDELPHPSFAKFSSQFREQELLAAITKKRVSSIEMHYFGREQKLQPYLFDKFPLLNSKKECLGIIF	failed
MCLGMAGEHMAPNSKHLSLHMPVDFIDALAQAESIDEILKVVATWFMEMFVADRASITFPVNDSHLRVVALEGNRVIDVDAPVPIHGTMVGRVFSRGQAEICDDLAASTDLDCLILASRGLGSCLDAPLRSGRDCYGTINVGRRDRNGFTLADMRKIEALAMWIATLIRVHRQVERLTHLSRTDPLTQIMNRRAFTESFQTRRLEGERRRAEVGTGLGFAVVDIDHFKQINDTYGHDVGDVVLAFVGKMMNEFFRESDCVARFGGEEFCVLMQDVDEGGMQRLLERFRVALGDCVVTHSAGTVSITASIGAVLVKTSVAGIDRAFRSADLALYKAKADGRNRVRIAPSAEQSHAGNPANRLCYPG	failed
MCPKNASYYGNRAATLMMLGRFREALGDAQQSVRLDDSFVRGHLREGKCHLSLGNAMAACRSFQRALELDHKNAQAQQEFKNANAVMEYEKIAETDFEKRDFRKVVFCMDRALEFAPACHRFKILKAECLAMLGRYPEAQSVASDILRMDSTNADALYVRGLCLYYEDCIEKAVQFFVQALRMAPDHEKACIACRNAKALKAKKEDGNKAFKEGNYKLAYELYTEALGIDPNNIKTNAKLYCNRGTVNSKLRKLDDAIEDCTNAVKLDDTYIKAYLRRAQCYMDTEQYEEAVRDYEKVYQTEKTKEHKQLLKNAQLELKKSKRKDYYKILGVDKNASEDEIKKAYRKRALMHHPDRHSGASAEVQKEEEKKFKEVGEAFTILSDPKKKTRYDSGQDLDEEGMNMGDFDPNNIFKAFFGGPGGFSFEASGPGNFFFQFG	failed
MCSMASHDLSVFLEEFGATVNLTLPGIVSEKERLLLKLLMEGMSVTEISQYRNRSAKTISHQKKQLYEKLGIQSDITFWRDIFFQYHPQVISGTGNKNNFYIPDNRCHHIVTPEAISLALENHEFKPWIQPVFCAQTGVLTGCEVLVRWEHPQTGIIPPDQFIPLAESSGLIVIMTRQLMKQTADILMPVKHLLPDNFHIGINVSAGCFLAAGFEKECLNLVKKLGNDKIKLVLELTERNPIPVTPEARAIFDSLHQHNITFALDDFGTGYATYRYLQAFPVDFIKIDKSFVQMAGVDEISGHIVDNIVELARKPGLSIVAEGVETQEQADLMIGKGVHFLQGYLYSPPVPGNKFISEWVMKAGG	failed
MCWPAPPRPSRRSSNGSPLLWQPGGYDRPPPPCRSLPHVCQNFVVRGCLMTISGGTFDPSICEMEPIATPGAIQPHGALMTARADSGRVAHASVNLGEILGLPAASVLGAPIGEVIGRVNEILLREARRSGSETPETIGSFRRSDGQLLHLHAFQSGDYMCLDIEPVRDEDGRLPPGARQSVIETFSSAMTQVELCELAVHGLQLVLGYDRVMAYRFGADGHGEVIAERRRQDLEPYLGLHYPASDIPQIARALYLRQRVGAIADACYRPVPLLGHPELDDGKPLDLTHSSLRSVSPVHLDYMQNMNTAASLTIGLADGDRLWGMLVCHNTTPRIAGPEWRAAAGMIGQVVSLLLSRLGEVENAAETLARQSTLSTLVERLSTGDTLAAAFVAADQLILDLVGASAAVVRLAGQELHFGRTPPVDAMQKVLDSLGRPSPLEVLSLDDVTLRHPELPELLAAGSGILLLPLTSGDGDLIAWFRPEHVQTITWGGNPAEHGTWNPATQRMRPRASFDAWKETVTGRSLPWTSAERNCARELGEAIAAEMAQRTRAELARLRHYDPLTGLANRSYLQERLAQDGQSAAALLFIDLDRFKAVNDSMGHGVGDGLLIEVARSLVATVRPHDLVVRLGGDEFVVLCHRLDAAGIVSLAERLRQVLEQPFEVAGRKCHISASIGIAMADSIGDLDLVRAADIAMYAAKKNGGNRGELFRPSLYEETTQLVELDNDMRGAIESEQFHLVYQPIFALNPETERLVGFEALLRWDHPLHGALQPGIFIPLAERLGHIHAMGNWVLRRAILQLQAFRSAGPELDLKMNVNVSPLQLARPDFLARLADLLAQVPDLPRHALCLEITETSLSDEAVSEALISIRALGVRIAIDDFGTGFSSLACLRRLPVDVAKLDRAFLGGGHTAAQDHRFFAAVTGLVHAADLKVVQEGIETLDQLALVRAAGADFAQGFHLAAPLSIAAALGLIAASRKE	failed
MCWVCGENLQAQPYMFRNVVMSDGLSGLLVNAIYKDSEGFIWLGTDNGLDRFDGVKVKHFEFRGVDSGRKKRVNCITETDNKQLWIGNGIGLWRLNRSGSELQRIVPEKIDCAVNALLADGDVLYIGTERGLFIQKDGQLLQVQTDKNMLAACNRIMDLCLNEDKSVLWLATVQGLFSYSLKDGQINSWHFRENVPEADYFRCLTRIGETLYLGTMSQGVVCFDIPKQTFAHTVSLGCDVISDISGDGKETVYIATDGNGVHFLSHKDRKVVRRFFHDVNDKEGIRSNSIYSLLVDDRGAVWVGHFQAGLDYSLYQNGLFRTYAYPPQFNSANLSIRSFVNRGPEKVIGSRDGLFYINEATGIVKSFVKPVLTSDLILTICFYEGEYYIGTYGGGMMVLNPQTLSLKYFTQGDTELFQKGHIFCVKPDNRGNLWIGTSQGLFCYNGQTKQIKNFTSTNSQLPEGNVYEVSFDSTGKGWIATETGMCIYDPASQSLRSNVFPEGFVHKDKVRTIYEDAEHNLYFIREKGSLFTSTLTMDHFRNQSVLSTLPDNSLMSITEDNQGWLWVGCNDGLLRIKEEGEEYDSFTFNDGVPGPTFTNGAAYKDERGLLWFGNTKGLIYVDPKQVDEVRGKVRPIVFTDILANGVSINKSSLKYNQNNLTFCFTDFAYGLPSALLYEYKLEGADSDWKLLTAQSEVSYYGLSSGTYTFCVRIPGNEQSMAIYKVTVQPMIPWWGWVILAISIILIVVLVRYYVRKSAPLVTEVHEISSEEEEEEEKTAEPHPAEEKYKANRMSEAECKELHDRLVAYVEKEKPYINPDLKMGELAAALHTSSHSLSYLLNQYLNQSYYDFINEYRVAQFKKMVEDSDYSRYTLTALAELCGFSSRASFFRSFKKSTGVTPNEYIRSIGGTAKDE	failed
MDAAVTDDFQQILPIEQLRSTHASNDYVERPPAPCKQALSSPSLIVQTHKSDWSLATMPTSLPRSLSQCHQLQPLPQHLSQSSIASSMSHSTTASDQRLLASITPSPSGQSIIRTQPGAGVHPKADGALKGEAEQSAGHPSEHLFICEECGRCKCVPCTAARPLPSCWLCNQRCLCSAESLLDYGTCLCCVKGLFYHCSTDDEDNCADEPCSCGPSSCFVRWAAMSLISLFLPCLCCYLPTRGCLHLCQQGYDSLRRPGCRCKRHTNTVCRKISSGSAPFPKAQEKSV	failed
MDAKEDVRPTGRGGRGVTAKSHVIVTSNMSVRQFLDVKYTTMNLNLFLSLDPIVDDNQNTLIKKDCSGRVDKDKGIVGDAQVFYTNGFKMSAMVTKHTNRSYLNNPTSIRRKLFDDAGVKGSNGVVRFHSVETSNVVTISVVNDFYNNEMGDDGVTNVTGIIRLARSTNGDSN	failed
